# Assay results from IntAct's records for PubMed 31515488.
# B1: Zinc finger protein 655 (Homo sapiens), Q8N720 (parent)
# chain: MEEIPAQEAAGSPRVQFQSLETQSECLSPEPQFVQDTDMEQGLTGDGETREENKLLIPKQKISEEVHSYKVRVGRLKHDITQVPETREVYKSEDRLERLQEILRKFLYLEREFRQITISKETFTSEKNNECHEPEKSFSLDSTIDADQRVLRIQNTDDNDKYDMSFNQNSASGKHEHLNLTEDFQSSECKESLMDLSHLNKWESIPNTEKSYKCDVCGKIFHQSSALTRHQRIHTREKPYKCKECEKSFSQSSSLSRHKRIHTREKPYKCEASDKSCEASDKSCSPSSGIIQHKKIHTRAKSYKCSSCERVFSRSVHLTQHQKIHKEMPCKCTVCGSDFCHTSYLLEHQRVHHEEKAYEYDEYGLAYIKQQGIHFREKPYTCSECGKDFRLNSHLIQHQRIHTGEKAHECNECGKAFSQTSCLIQHHKMHRKEKSYECNEYEGSFSHSSDLILQQEVLTRQKAFDCDVWEKNSSQRAHLVQHQSIHTKENS
# B2: Serine/threonine-protein kinase PAK 5 (Homo sapiens), Q9P286 (parent)
# chain: MFGKKKKKIEISGPSNFEHRVHTGFDPQEQKFTGLPQQWHSLLADTANRPKPMVDPSCITPIQLAPMKTIVRGNKPCKETSINGLLEDFDNISVTRSNSLRKESPPTPDQGASSHGPGHAEENGFITFSQYSSESDTTADYTTEKYREKSLYGDDLDPYYRGSHAAKQNGHVMKMKHGEAYYSEVKPLKSDFARFSADYHSHLDSLSKPSEYSDLKWEYQRASSSSPLDYSFQFTPSRTAGTSGCSKESLAYSESEWGPSLDDYDRRPKSSYLNQTSPQPTMRQRSRSGSGLQEPMMPFGASAFKTHPQGHSYNSYTYPRLSEPTMCIPKVDYDRAQMVLSPPLSGSDTYPRGPAKLPQSQSKSGYSSSSHQYPSGYHKATLYHHPSLQSSSQYISTASYLSSLSLSSSTYPPPSWGSSSDQQPSRVSHEQFRAALQLVVSPGDPREYLANFIKIGEGSTGIVCIATEKHTGKQVAVKKMDLRKQQRRELLFNEVVIMRDYHHDNVVDMYSSYLVGDELWVVMEFLEGGALTDIVTHTRMNEEQIATVCLSVLRALSYLHNQGVIHRDIKSDSILLTSDGRIKLSDFGFCAQVSKEVPKRKSLVGTPYWMAPEVISRLPYGTEVDIWSLGIMVIEMIDGEPPYFNEPPLQAMRRIRDSLPPRVKDLHKVSSVLRGFLDLMLVREPSQRATAQELLGHPFLKLAGPPSCIVPLMRQYRHH
# B3: Transcription factor 12 (Homo sapiens), Q99081 (parent)
# chain: MNPQQQRMAAIGTDKELSDLLDFSAMFSPPVNSGKTRPTTLGSSQFSGSGIDERGGTTSWGTSGQPSPSYDSSRGFTDSPHYSDHLNDSRLGAHEGLSPTPFMNSNLMGKTSERGSFSLYSRDTGLPGCQSSLLRQDLGLGSPAQLSSSGKPGTAYYSFSATSSRRRPLHDSAALDPLQAKKVRKVPPGLPSSVYAPSPNSDDFNRESPSYPSPKPPTSMFASTFFMQDGTHNSSDLWSSSNGMSQPGFGGILGTSTSHMSQSSSYGNLHSHDRLSYPPHSVSPTDINTSLPPMSSFHRGSTSSSPYVAASHTPPINGSDSILGTRGNAAGSSQTGDALGKALASIYSPDHTSSSFPSNPSTPVGSPSPLTGTSQWPRPGGQAPSSPSYENSLHSLQSRMEDRLDRLDDAIHVLRNHAVGPSTSLPAGHSDIHSLLGPSHNAPIGSLNSNYGGSSLVASSRSASMVGTHREDSVSLNGNHSVLSSTVTTSSTDLNHKTQENYRGGLQSQSGTVVTTEIKTENKEKDENLHEPPSSDDMKSDDESSQKDIKVSSRGRTSSTNEDEDLNPEQKIEREKERRMANNARERLRVRDINEAFKELGRMCQLHLKSEKPQTKLLILHQAVAVILSLEQQVRERNLNPKAACLKRREEEKVSAVSAEPPTTLPGTHPGLSETTNPMGHM
# partner: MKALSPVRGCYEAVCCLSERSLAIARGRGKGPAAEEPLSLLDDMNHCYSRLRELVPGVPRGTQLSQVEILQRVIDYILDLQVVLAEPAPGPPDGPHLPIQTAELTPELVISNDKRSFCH
# B4: Fanconi anemia group G protein (Homo sapiens), O15287 (parent)
# chain: MSRQTTSVGSSCLDLWREKNDRLVRQAKVAQNSGLTLRRQQLAQDALEGLRGLLHSLQGLPAAVPVLPLELTVTCNFIILRASLAQGFTEDQAQDIQRSLERVLETQEQQGPRLEQGLRELWDSVLRASCLLPELLSALHRLVGLQAALWLSADRLGDLALLLETLNGSQSGASKDLLLLLKTWSPPAEELDAPLTLQDAQGLKDVLLTAFAYRQGLQELITGNPDKALSSLHEAASGLCPRPVLVQVYTALGSCHRKMGNPQRALLYLVAALKEGSAWGPPLLEASRLYQQLGDTTAELESLELLVEALNVPCSSKAPQFLIEVELLLPPPDLASPLHCGTQSQTKHILASRCLQTGRAGDAAEHYLDLLALLLDSSEPRFSPPPSPPGPCMPEVFLEAAVALIQAGRAQDALTLCEELLSRTSSLLPKMSRLWEDARKGTKELPYCPLWVSATHLLQGQAWVQLGAQKVAISEFSRCLELLFRATPEEKEQGAAFNCEQGCKSDAALQQLRAAALISRGLEWVASGQDTKALQDFLLSVQMCPGNRDTYFHLLQTLKRLDRRDEATALWWRLEAQTKGSHEDALWSLPLYLESYLSWIRPSDRDAFLEEFRTSLPKSCDL
# partner: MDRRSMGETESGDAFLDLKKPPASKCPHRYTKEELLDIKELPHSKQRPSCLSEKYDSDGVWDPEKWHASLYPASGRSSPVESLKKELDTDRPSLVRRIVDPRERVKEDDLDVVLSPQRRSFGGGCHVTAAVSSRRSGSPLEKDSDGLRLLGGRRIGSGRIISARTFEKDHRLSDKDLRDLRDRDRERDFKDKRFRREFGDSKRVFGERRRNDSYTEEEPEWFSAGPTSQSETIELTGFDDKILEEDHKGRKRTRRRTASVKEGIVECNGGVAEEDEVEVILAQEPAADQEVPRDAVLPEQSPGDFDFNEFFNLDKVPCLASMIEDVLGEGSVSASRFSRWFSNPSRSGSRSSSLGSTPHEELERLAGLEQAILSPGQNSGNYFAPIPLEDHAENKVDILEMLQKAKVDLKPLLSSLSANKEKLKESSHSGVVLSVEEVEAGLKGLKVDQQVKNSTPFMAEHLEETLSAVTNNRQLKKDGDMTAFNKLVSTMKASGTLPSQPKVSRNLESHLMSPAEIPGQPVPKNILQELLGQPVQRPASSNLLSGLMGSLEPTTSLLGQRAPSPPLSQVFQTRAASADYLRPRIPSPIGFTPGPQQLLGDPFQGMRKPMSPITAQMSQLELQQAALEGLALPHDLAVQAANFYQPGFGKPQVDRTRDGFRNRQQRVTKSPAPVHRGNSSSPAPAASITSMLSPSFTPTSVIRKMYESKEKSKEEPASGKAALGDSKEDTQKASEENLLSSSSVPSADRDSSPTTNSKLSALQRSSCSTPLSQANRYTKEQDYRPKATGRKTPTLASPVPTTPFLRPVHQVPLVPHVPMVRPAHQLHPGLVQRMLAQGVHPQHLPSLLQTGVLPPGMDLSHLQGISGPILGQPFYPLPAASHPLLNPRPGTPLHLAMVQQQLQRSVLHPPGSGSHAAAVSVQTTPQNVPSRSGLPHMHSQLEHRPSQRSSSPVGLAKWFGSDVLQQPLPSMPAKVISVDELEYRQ
# B5: Synaptonemal complex central element protein 3 (Homo sapiens), A1L190 (parent)
# chain: MDDADPEERNYDNMLKMLSDLNKDLEKLLEEMEKISVQATWMAYDMVVMRTNPTLAESMRRLEDAFVNCKEEMEKNWQELLHETKQRL
# partner: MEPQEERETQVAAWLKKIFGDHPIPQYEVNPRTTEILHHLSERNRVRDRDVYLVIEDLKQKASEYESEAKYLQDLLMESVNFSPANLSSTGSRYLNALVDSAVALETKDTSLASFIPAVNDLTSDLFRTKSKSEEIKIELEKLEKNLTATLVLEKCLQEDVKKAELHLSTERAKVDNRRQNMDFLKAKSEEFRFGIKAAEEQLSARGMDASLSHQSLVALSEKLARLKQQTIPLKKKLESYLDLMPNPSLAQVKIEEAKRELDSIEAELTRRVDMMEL
# Variants of: B1
# Conditions: with rint1_human RINT1, Q6NUQ1
# Chain of rint1_human RINT1, Q6NUQ1 (Q6NUQ1 whole entry): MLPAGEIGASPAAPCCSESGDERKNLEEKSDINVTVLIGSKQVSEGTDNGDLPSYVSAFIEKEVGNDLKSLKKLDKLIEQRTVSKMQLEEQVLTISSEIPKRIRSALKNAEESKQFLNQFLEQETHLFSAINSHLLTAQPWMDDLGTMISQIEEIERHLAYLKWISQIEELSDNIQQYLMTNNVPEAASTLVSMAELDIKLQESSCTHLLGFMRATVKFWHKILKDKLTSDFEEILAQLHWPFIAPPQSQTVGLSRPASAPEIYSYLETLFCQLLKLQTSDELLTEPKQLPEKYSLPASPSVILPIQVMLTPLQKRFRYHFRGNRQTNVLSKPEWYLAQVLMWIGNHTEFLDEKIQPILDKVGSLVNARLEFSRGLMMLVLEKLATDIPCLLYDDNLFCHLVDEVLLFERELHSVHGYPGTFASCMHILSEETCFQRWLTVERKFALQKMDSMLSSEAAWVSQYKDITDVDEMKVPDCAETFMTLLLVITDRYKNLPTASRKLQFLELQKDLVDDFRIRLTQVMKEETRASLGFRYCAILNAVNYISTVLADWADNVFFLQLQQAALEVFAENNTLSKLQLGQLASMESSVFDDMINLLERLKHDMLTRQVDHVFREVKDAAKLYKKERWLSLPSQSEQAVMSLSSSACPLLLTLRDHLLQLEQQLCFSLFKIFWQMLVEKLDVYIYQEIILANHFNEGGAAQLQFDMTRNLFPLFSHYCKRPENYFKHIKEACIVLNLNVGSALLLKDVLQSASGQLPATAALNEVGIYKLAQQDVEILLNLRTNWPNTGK
row,effect of a mutation on the interaction,Variant
1,with no effect,MEEIPAQEAAGSPRVQFQSLETQSECLSPEPQFVQDTDMEQGLTGDGETREENKLLIPKQKISEEVHSYKVRVGRLKHDITQVPETREVYKSEDRLERLQEILRKFLYLEREFRQITISKETFTSEKNNECHEPEKSFSLDSTIDADQRVLRIQNTDDNDKYDMSFNQNSASGKHEHLNLTEDFQSSECKERLMDLSHLNKWESIPNTEKSYKCDVCGKIFHQSSALTRHQRIHTREKPYKCKECEKSFSQSSSLSRHKRIHTREKPYKCEASDKSCEASDKSCSPSSGIIQHKKIHTRAKSYKCSSCERVFSRSVHLTQHQKIHKEMPCKCTVCGSDFCHTSYLLEHQRVHHEEKAYEYDEYGLAYIKQQGIHFREKPYTCSECGKDFRLNSHLIQHQRIHTGEKAHECNECGKAFSQTSCLIQHHKMHRKEKSYECNEYEGSFSHSSDLILQQEVLTRQKAFDCDVWEKNSSQRAHLVQHQSIHTKENS [S192R]

# Variants of: B1
# Conditions: with int13_human INTS13, Q9NVM9
# Chain of int13_human INTS13, Q9NVM9 (Q9NVM9 whole entry): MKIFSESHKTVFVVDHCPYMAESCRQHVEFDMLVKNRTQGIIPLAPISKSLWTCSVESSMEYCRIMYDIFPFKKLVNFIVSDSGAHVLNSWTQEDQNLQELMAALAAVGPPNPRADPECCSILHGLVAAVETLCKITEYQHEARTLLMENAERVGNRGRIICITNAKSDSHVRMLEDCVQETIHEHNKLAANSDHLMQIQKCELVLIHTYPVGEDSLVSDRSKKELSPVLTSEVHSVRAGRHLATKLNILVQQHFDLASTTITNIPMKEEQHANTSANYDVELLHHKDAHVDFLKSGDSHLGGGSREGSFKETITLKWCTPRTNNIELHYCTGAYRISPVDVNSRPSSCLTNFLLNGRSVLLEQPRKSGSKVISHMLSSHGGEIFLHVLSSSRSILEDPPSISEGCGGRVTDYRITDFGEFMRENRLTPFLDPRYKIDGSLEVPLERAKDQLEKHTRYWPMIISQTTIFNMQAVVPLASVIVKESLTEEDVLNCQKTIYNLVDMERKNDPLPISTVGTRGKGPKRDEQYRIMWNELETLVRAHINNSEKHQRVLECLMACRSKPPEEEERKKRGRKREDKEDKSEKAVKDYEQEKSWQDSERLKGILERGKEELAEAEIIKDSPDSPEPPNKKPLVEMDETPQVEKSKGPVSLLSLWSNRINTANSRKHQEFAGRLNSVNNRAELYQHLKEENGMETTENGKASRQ
row,effect of a mutation on the interaction,Variant
1,with no effect,MEEIPAQEAAGSPRVQFQSLETQSECLSPEPQFVQDTDMEQGLTGDGETREENKLLIPKQKISEEVHSYKVRVGRLKHDITQVPETREVYKSEDRLERLQEILRKFLYLEREFRQITISKETFTSEKNNECHEPEKSFSLDSTIDADQRVLRIQNTDDNDKYDMSFNQNSASGKHEHLNLTEDFQSSECKESLMDLSHLNKWESIPNTEKSYKCDVCGKIFHQSSALTRHQRIHTREKPYKCKECEKSFSQSSSLSRHKRIHTREKPYKCEASDKSCEASDKSCSPSSGIIQHKKIHTRAKSYKCSSCERVFSRSVHLTQHQKIHKEMPCKCTVCGSDFCHTSYLLEHQRVHHEEKAYEYDEYGLAYIKQQGIHFREKPYTCSECGKDFRLNSHLIQHQRIHTGEKAHECNECGKAFSQTSCLIQHHKMHRKEKSYECNEYEGSFSHSSDLILQQEVLTRQKAFDGDVWEKNSSQRAHLVQHQSIHTKENS [C466G]

# Variants of: B2
# Conditions: with uxt_human UXT
row,effect of a mutation on the interaction,Variant
1,with no effect,R335P
2,with no effect,V604I
3,with no effect,S511N

# Variants of: B2
# Conditions: with crbn_human CRBN
row,effect of a mutation on the interaction,Variant
1,with no effect,R335P

# Variants of: B2
# Conditions: with gcp4_human TUBGCP4, Q9UGJ1
# Chain of gcp4_human TUBGCP4, Q9UGJ1 (Q9UGJ1 whole entry): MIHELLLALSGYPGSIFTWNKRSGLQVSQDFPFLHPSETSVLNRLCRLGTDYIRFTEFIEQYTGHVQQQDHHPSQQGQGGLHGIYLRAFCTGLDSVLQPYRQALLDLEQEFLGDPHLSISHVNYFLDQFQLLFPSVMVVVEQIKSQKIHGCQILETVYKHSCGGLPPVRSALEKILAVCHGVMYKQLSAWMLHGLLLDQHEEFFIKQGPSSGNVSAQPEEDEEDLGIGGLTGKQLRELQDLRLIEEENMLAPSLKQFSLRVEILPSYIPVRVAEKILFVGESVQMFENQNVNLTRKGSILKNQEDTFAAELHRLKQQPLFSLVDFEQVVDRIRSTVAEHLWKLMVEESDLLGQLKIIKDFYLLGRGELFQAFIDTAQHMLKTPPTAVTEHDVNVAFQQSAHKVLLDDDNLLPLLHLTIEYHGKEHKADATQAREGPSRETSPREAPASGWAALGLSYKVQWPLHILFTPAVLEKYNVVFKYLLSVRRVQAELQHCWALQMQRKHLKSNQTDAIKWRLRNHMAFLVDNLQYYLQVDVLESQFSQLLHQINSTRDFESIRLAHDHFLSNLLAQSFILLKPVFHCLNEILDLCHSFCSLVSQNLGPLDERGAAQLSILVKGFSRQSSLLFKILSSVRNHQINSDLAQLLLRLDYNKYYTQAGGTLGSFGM
row,effect of a mutation on the interaction,Variant
1,with no effect,R335P

# Variants of: B2
# Conditions: with fhl3_human FHL3, Q13643
# Chain of fhl3_human FHL3, Q13643 (Q13643 whole entry): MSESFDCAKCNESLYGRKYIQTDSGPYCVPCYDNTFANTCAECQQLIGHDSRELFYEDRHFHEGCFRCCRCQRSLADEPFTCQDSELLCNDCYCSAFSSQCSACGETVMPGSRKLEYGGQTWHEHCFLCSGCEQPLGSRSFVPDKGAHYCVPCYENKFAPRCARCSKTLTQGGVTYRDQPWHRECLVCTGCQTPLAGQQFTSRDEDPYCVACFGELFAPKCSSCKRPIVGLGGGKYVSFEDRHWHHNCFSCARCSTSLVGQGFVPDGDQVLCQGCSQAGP
row,effect of a mutation on the interaction,Variant
1,with no effect,V604I
2,with no effect,S511N

# Variants of: B2
# Conditions: with pdli7_human PDLIM7, Q9NR12
# Chain of pdli7_human PDLIM7, Q9NR12 (Q9NR12 whole entry): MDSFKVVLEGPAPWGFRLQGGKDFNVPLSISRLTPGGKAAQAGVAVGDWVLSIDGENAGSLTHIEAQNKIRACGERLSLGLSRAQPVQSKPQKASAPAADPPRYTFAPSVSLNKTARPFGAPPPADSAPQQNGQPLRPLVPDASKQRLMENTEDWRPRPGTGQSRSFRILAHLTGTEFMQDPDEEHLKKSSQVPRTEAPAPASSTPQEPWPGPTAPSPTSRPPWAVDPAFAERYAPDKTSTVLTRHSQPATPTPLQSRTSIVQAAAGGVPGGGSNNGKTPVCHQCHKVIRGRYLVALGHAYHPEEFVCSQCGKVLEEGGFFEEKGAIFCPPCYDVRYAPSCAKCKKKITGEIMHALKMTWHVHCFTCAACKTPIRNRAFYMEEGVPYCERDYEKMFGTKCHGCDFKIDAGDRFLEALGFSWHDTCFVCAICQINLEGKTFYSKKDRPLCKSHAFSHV
row,effect of a mutation on the interaction,Variant
1,with no effect,V604I
2,with no effect,S511N

# Variants of: B3
# Conditions: with id3_human ID3, Q02535
row,Variant,effect of a mutation on the interaction
1,G300S,with no effect
2,L483R,with no effect

# Results, then the variant that gave them:
row,effect of a mutation on the interaction,Variant
1,with no effect,A458V
2,with no effect,D565V
3,with no effect,N479S

# Variants of: B4
# Conditions: with 4et_human EIF4ENIF1, Q9NRA8
row,effect of a mutation on the interaction,Variant
1,with no effect,T297I
2,with no effect,S7F

# Variants of: B5
# Conditions: with haus1_human HAUS1, Q96CS2
row,effect of a mutation on the interaction,Variant
1,with no effect,MDDADPEERNYDNMLKMLSDLNKDLEKLLEEMEKISVQATWMAYDMVVMRTNPTLAESMRRLEDGFVNCKEEMEKNWQELLHETKQRL
2,with no effect,MDDADPEERNYDNMLKMLSDLNKDLEKLLEEMEKISVQATWMAYDMVVMCTNPTLAESMRRLEDAFVNCKEEMEKNWQELLHETKQRL
